Tested on: K4 kissing-loop RNA reporter
Test: apparent KD of K4 kissing-loop reporter; higher = weaker reporter binding
Conditions: Eterna round: R107
Protocol: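 RNA-MaP round R107: designed RNA switches with theophylline, tryptophan, arginine or FMN aptamers are transcribed on-chip within common flanks. They are titrated with a labelled K4 kissing-loop RNA reporter in RNA-MaP buffer (100 mM Tris pH 7.5, 80 mM KCl, 4 mM MgCl2), without ligand or with the indicated ligand. Median apparent KD per design.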

[1] = input ligand: theophylline 20 uM
[2] = input ligand: tryptophan 2.4 mM
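Further: bound reporter read as fluorescence of individual clusters on recovered sequencing chips by microscopy, with normalized cluster intensities fitted with a binding model.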

Sequence | apparent KD of K4 kissing-loop reporter (input ligand: FMN 200 uM) | apparent KD of K4 kissing-loop reporter (input ligand: arginine 13.2 mM) | apparent KD of K4 kissing-loop reporter (input ligand: none) | apparent KD of K4 kissing-loop reporter [1] | apparent KD of K4 kissing-loop reporter [2]
AACGCUCAAUAGAGAGUGAUGUUCUCUAUACGAGGACCGGUACGGCCGCCACUCGAAUGUAUAGCGAAACGCUAUACACAGUGGU [Tryp A SS t2] | 155 nM | 147 nM | 152 nM | 146 nM | 150 nM
UCUGCUGUAUAUGAUACCAGCAGUGAGAGACCAGAAGUAUAGUGAUGUUAUAUGAGAGAAUGCCCUUGGCAGCGUGUGCGGGUGG [SSTheophylB.Z] | 85.4 nM | 87.6 nM | 67.5 nM | 84.7 nM | 61.6 nM
AGUCCACUCUAAAGAGUGGACCUAAGGGAUACCAGUGAUGUUGGUCACCCUUGGCAGCCCACUGUCAUCGAUAAAGAUGGCAGAA | 120 nM | 98.1 nM | 114 nM | 122 nM | 116 nM
GCGCGUCAUGUCAGCGGUGACACUGUCGAUACCAGCGCCGUAAGGCGCCCUUGGCAGCGACGUGCUGGAGUGAUGUUCCAGCGUC [#2 Exclusion - Theophylline A Attempt #20 (HarryS)] | 178 nM | 110 nM | 149 nM | 126 nM | 141 nM
AGACUACCACACUGUCAAUAGACAGUGAACUAGGAUAUGCUGAUAAGCAGAAGGAGUGAUGUUCCUCGGUAGUCAAUAAAAUAAU [FmnAX 13 C67] | 419 nM | 255 nM | 303 nM | 346 nM | 235 nM
UGUAUGUGAUUUGAUACCAGACCAGCUGGUGGUAUCUGAGUGAUGUUCAGGUAGGUUUGGGUCCCUUGGCAGCAAAUCGCAUACU [KL-SSTheoB26] | 168 nM | 118 nM | 153 nM | 150 nM | 147 nM
UAGUCCUAGUGAUCCUUAUCAAGUGGUGGGCGAGGACCGGUACGGCCGCCACUCGAAUAUGCAGUGAUGUUGUAAUCCGGAUAAU [Exclusion - Tryptophan A (Freestyle 10)] | 596 nM | 511 nM | 727 nM | 846 nM | 417 nM
AACGCUGCCUGAGGAUAUAGAAACGAGUGAUGUUCGUGGAACGAGACCAGUGAUGUUGGCCUAUUUCUAGAAGGCAGGCAACCGC [Exclusion FMN B GF 1] | 155 nM | 121 nM | 148 nM | 123 nM | 125 nM
UUUGGAUUGCACUAAGAGCGCAAGCGCCAACGAGGACCGGUACGGCCGCCACUCGCGGAGGAGUCCAGUGAUGUUGGACGGCCCG [Onenusan] | 233 nM | 359 nM | 359 nM | 180 nM | 172 nM
AAACAUAAGUCUGAUACCAGCCUGGGAGAAGUGAUGUUUCUCGGUGCAUAACGCCUAUAAGGCCCUUGGCAGCAGCAUGCGCUUC [theeternabot_sameState_KL_Theo_B_10] | 547 nM | 485 nM | 569 nM | 471 nM | 516 nM
AUAGCACCUUAUGAUACCAGACGAGUGAUGUUCUGUGGUGUCGUCACAAGGCAAUCGACUGUCCCUUGGCAGCAUCAUUCUAUAU [theeternabot_exclusion_KL_Theo_B_31] | 563 nM | 531 nM | 453 nM | 722 nM | 730 nM
GGCAUCCAUGGACAUAGUGAUGUUAUGUGCCGAGGACCGGUACGGCCGCCACUCGACCAUGGAUGCCGCAAUCGGAAACGAUUGC | 1090 nM | 915 nM | 1610 nM | 888 nM | 115 nM
CGUUCCUCUGUCGAUACCAGCUUCAGUUGGCGGCCAGUGAUGUUGGUAUCGCCGAUGCCAAGCCCUUGGCAGCGACAUGAGAACC [Uslaessobi] | 200 nM | 166 nM | 166 nM | 105 nM | 172 nM
CGGUUAUAGCAGGAUACCAGUACCCAUUAUGUACGUUUAUAGUAGAGUGAUGUUCUAAAGUACCCUUGGCAGCUUCCCGUGACCC [#23 K4 Theophylline B Exclusion] | 150 nM | 199 nM | 168 nM | 265 nM | 127 nM
AGCAAUAUCACGGCCGCCACUGAUUAUUGUUUUUAUAGUUAUAAAUCUUGCCAGUGAUGUUGGUUCAGGACCGGGUGAGUUAAUA [JR_SSTryptoB_Sub002] | 498 nM | 565 nM | 727 nM | 620 nM | 373 nM
GGGCGUGGCGCGGCCGCCACUGGGCCUGGGCGCUCGCUGAGUGAUGUUCGUCGGCGGCUGGGUCGUAGGACCGGGUGCUGGUUGG [BDazzled - #7 SS Tryptophan B] | 529 nM | 309 nM | 438 nM | 424 nM | 302 nM
AACUCUCAGAUACUUGAGUGAUGUUCAGGCCGAGGACCGGUACGGCCGCCACUCGGGUCUGAGAGAGGUUAUCAAAGAUAGCCAA [Omei KL Tryp A SS A v10] | 266 nM | 197 nM | 257 nM | 329 nM | 236 nM
UGGACCUGACUCGAUAAGAGUCAAUGAGAUACCAGUGACGAAAGUCACCCUUGGCAGCUCAACUGCCAGUGAUGUUGGUGGUCCU [#SwitchBubble 2 #StaticStem] | 605 nM | 389 nM | 769 nM | 703 nM | 528 nM
UGACUGGACUGAAGGAGCGGGCGAGACAAAGUCUCGAACUCCUAGUGAUGUUAGGAAAUAACCCAGGUAGGUCGCAGUCUAGUCU [ArgBS 7 #SwitchBubble #StaticStem #DoubleMagnet] | 149 nM | 104 nM | 128 nM | 136 nM | 137 nM
GGCGCUGUCUGUGCCGCCCUCCUCGUCCCUCGAGGACCGGUACGGCCGCCACUCGAGUGAUGUUCGGGUAGCCCUCCCUGCCAGC [BDazzled - #22 Exc. Tryptophan A] | 462 nM | 320 nM | 492 nM | 382 nM | 233 nM
GCUCGGGAGUGAUGUUCCAAGUGGUGUUAACGAGGACCGGUACGGCCGCCACUCGAUACGGCCGGACCGUAGGAUAAACUGGAGC [Same State - Tryptophan A (Freestyle 12)] | 149 nM | 110 nM | 125 nM | 185 nM | 144 nM

Sequence | apparent KD of K4 kissing-loop reporter (input ligand: FMN 200 uM) | apparent KD of K4 kissing-loop reporter (input ligand: arginine 13.2 mM) | apparent KD of K4 kissing-loop reporter (input ligand: none) | apparent KD of K4 kissing-loop reporter [1] | apparent KD of K4 kissing-loop reporter [2]
AAAAUAAUCCAGUGAUGUUGGUAUCCAGAUACCAGCCACGAAAGUGGCCCUUGGCAGCUGUGGACGUACAAAAUAAGUACGUCCU [#OpenEnded 8 #StaticStem #K4Early] | 534 nM | 293 nM | 729 nM | 790 nM | 651 nM
AAUAAAAUCACGGCCGCCACUGAAUUAUUGGUAAGUAGUGAUGUUACUUUACAUAUCUAAUUUAACAGGACCGGGUGAAUAUUUA [#17 K4 Tryptophan B Exclusion] | 130 nM | 93.4 nM | 113 nM | 96.6 nM | 131 nM
AGGCACGAGCAAGGAUAUCGAGUAGAGUGAUGUUCUGCCUGGGUUGGCUCGGAAGAGCCUUCUCAGCGAGAAGGUGCUCGUGCCU [#2 Same State - FMN A Attempt #19 (HarryS)] | 235 nM | 604 nM | 747 nM | 923 nM | 888 nM
AUUCGUUUAUGUGAUACCAGACUUUGCAGUGAUGUUGCAUUAAUUUUUGAUUAUUAGUUUGUCCCUUGGCAGCACUAUUUAUUUA [JR_SSTheophyB_Sub004] | 40.2 nM | 81.5 nM | 44.8 nM | 80.1 nM | 36.6 nM
AAUAGGGAUAGUGAUGUUAUCCCUUAUGAUACCAGUGCCAUCGGACACCCUUGGCAGCAUACGGGCAGUGAUGUUGUCCUUGGUG [Exclusion Theophylline A GF 16] | 106 nM | 94 nM | 101 nM | 94.8 nM | 93.8 nM
AAGGCCGCGCGGUGAUGUUUCAUCGCCGCCCGAGGACCGGUACGGCCGCCACUCGGAUAUAUCGCAGUGAUGUUGCUCUAUAUCA [Exclusion - Tryptophan A] | 160 nM | 151 nM | 155 nM | 167 nM | 203 nM
AGACUACUGAUAGGAUAUAACAUCCUAGUCGUAUACCGAAAGGUAUACGAUUCCCUUCUAGUGAUGUUAGAAGGGUCGGUAGUCA [Omei KL FMN B Exc B v12] | 78.5 nM | 69.2 nM | 71.3 nM | 60.9 nM | 78.9 nM
CAUACGCAUGGAGGAUAUGAGAUUUCUCAUAUUAUUUAAUAUUCUCAGUGAUGUUGAGAAAUAAACUCAGAAGGCCAUGUGUAUG [Ex FMN B 3] | 256 nM | 365 nM | 313 nM | 405 nM | 304 nM
UUCUGCAUCUCGGCCGCCACUCACUAGUGAUGUUAGUAAGGAGCGACUAGAAAAGUCCAGUUAAUGAGGACCGGGAGAAGCUCUU [Exclusion Tryptophan B GF 1] | 281 nM | 298 nM | 312 nM | 199 nM | 217 nM
GCCUAGGCUCGAAAGAGCCUAGGCUGGGCUCAGGAUAUCCGGAAACGGAGAAGGGAGGGACUAGUGAUGUUAGGGAUUCCCUAUG | 461 nM | 264 nM | 290 nM | 251 nM | 203 nM
CGCGCGCGCCGCAAGGCGCGCGCGAACGAUACCAGUAUAUAAGAAUACCCUUGGCAGCGUAAGAAAGCUAUAGUGAUGUUGUAGA [#19 K4 Theophylline A Same State] | 254 nM | 121 nM | 226 nM | 265 nM | 273 nM
GCCGUAGAUGGAAGGAGCGUGAUAAGUGAAUUAUCCAGUGAUGUUGGAUCUUAGAUAGGAUCACAGGUAGGUCGCCAUCUACGGC | 244 nM | 181 nM | 217 nM | 297 nM | 192 nM
UCCCGAGUGAUGUUUGGCUGAUGGAGUGAUACCAGUCCCUAGACUGACCCUUGGCAGCACGACUUGUACCAGGCGGAUCACCCUG [theeternabot_exclusion_KL_Theo_A_5] | 479 nM | 260 nM | 423 nM | 431 nM | 366 nM
UCCUGCAAUCCGCCACGAAAGUGGAUGGAUACCAGAGUCGAAAGACUCCCUUGGCAGCCAGUGAUGUUGGAAGCAGGUAAAUAAA | 819 nM | 645 nM | 715 nM | 656 nM | 596 nM
AGGGCUGAGAGCGAUACCAGCGGUAACUGUAUGGUCCAAUAGAGUGAUGUUUUAUAGAGCCGCCCUUGGCAGCGCAAUCUAUUAG [XTheo-B5] | 245 nM | 65.5 nM | 424 nM | 184 nM | 129 nM
UGUGUUUUUUUGAUGUUUGUUGUAAAAUGGCAGGAUAUCGUAGAGGCGAGAAGGGCUUUUAUGCGUUAUGAGUGAUGUUUGUAGG [qqdqmullin] | 316 nM | 297 nM | 315 nM | 336 nM | 241 nM
CAUUCGAAAUGCAGUGAUGUUGCAACCGAUACCAGUAUCGAAAGAUACCCUUGGCAGCGGAAAACCGCUACGUAUUUUUUGAAUG [Ex Theophylline A K4 26] | 204 nM | 288 nM | 276 nM | 243 nM | 237 nM
GGGUCUGUCGGAAGGAGCGCACUAUGGAGUGAUGUUCCAUGACCGCACAGCUUGCGGUCAGUGCAGGUAGGUCGCCGAUAGCUUU [Usquso] | 277 nM | 169 nM | 197 nM | 286 nM | 164 nM
AUAUCUGUUCGAAAGAACGGAUCUUCGGAAGGAGCGCGUGAAAACGCAGGUAGGUCGCCGAAGUUAUUAGGUAGUGAUGUUACCU [Arginine A K4 7] | 129 nM | 96.4 nM | 113 nM | 101 nM | 109 nM
UUGUUUGGUUGAGAGGUUGGGCGAGAUGAUACCAGUAGAGAAGAGUACCCUUGGCAGCAUAGGAGAGAUAUAGUGAUGUUGUAUG [SSTheophA.S] | 258 nM | 187 nM | 320 nM | 498 nM | 299 nM
AAUCAAUACAGAAGGAGCGUGACAUUUGCUAUUGUAAUUUUAGCUAGUGAUGUUAGCAUUUCACAGGUAGGUCGCUGUACAUUUA [JR_SSArginiB_Sub010] | 275 nM | 324 nM | 354 nM | 415 nM | 259 nM
